Test results: patent US20250282887A1 (Amgen, published 2025)
Numbering of substitutions follows the chain as printed.

T1: Human MAGEB2 (Melanoma-associated antigen B2) (human, UniProt O15479 1-319)
T1 construct: Intracellular antigen detected by IHC in FFPE material: CHO cells transfected with human MAGEB2 (mCherry vector with Myc/DDK tags, or ORF without tags)
T1 sequence: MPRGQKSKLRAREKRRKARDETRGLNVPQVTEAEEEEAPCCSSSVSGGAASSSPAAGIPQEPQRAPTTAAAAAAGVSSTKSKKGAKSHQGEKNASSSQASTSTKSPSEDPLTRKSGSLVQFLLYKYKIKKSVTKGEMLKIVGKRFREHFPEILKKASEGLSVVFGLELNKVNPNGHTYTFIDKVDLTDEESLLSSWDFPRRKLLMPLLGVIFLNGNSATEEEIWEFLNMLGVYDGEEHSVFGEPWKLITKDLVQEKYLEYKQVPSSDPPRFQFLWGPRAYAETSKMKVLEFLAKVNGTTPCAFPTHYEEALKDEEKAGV

T2: human MAGEA1 (human, UniProt P43355 1-309)
T2 construct: whole, on cells; FFPE cell pellets
T2 sequence (looked up): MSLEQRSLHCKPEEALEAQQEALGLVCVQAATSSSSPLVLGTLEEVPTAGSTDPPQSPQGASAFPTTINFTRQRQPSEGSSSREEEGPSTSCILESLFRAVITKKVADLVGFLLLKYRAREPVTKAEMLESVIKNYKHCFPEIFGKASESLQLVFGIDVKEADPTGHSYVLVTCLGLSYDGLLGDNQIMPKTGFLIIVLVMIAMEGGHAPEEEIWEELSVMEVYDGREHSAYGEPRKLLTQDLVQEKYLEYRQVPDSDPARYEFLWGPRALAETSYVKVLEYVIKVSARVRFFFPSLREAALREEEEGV

B1: 1I14 (antibody, V domains shown)
VH: QSVEESGGRLVTPGTPLTLTCTISGFSLSSYAMSWVRQAPGKGLEWIGSIGGGGSAVYASWAKGRFTISKTSTTVDLRITSPTTEDTAMYFCGRGFYSIDLWGPGTLVTVSS
VL: DVVMTQTPASVEATVGGTVTIKCQSSQSVYDNNALAWYQQNAGQRPRLLIYGASTLASGVPSRFSASGSGTEFTLTISDLECADAATYYCQCTYYVSSYQNDFGGGTEVVVKG
notes: also called MAGE-B2 (1i14)
B2: 1C3 (antibody, V domains shown)
VH: QSLEESGGGLVQPEGSLTLTCTAFGVTLTNYYICWVRQAPGKGLEWVGCIDNANGRTYYASWAKGRFTISKTSSTTGTLQMTSLTAADTATYFCARSLATPLWGPGTLVTVSS
VL: DIVMTQTPSSVEAAVGGTVTIKCQASQNISSYLAWYQQKPGQPPKLLIYRASTLASGVPSRFKGSGSGTQFTLTISDLECADAATYYCQSYDDSRSSNFFYAFGGGTEVVVKG
notes: also called MAGE-B2 (IC3); anti-MAGEB2 antibody 1C3
B3: 4G17 (antibody, IgG1, V domains shown)
VH: B2 VH with F24S, T29S, V47I, A53V
VL: DIVMTQTPASVEAAVGGTVTIKCQASQNIDSYLAWYQQKPGQPPKLLIYRASTLASGVPSRFKGSGSGTEFTLTISDLECADAATYYCQSYDDSRSSSFFYGFGGGTEVVVK
notes: Rabbit monoclonal IgG1; Tested as supernatant and as small batch purified antibody; also called MAGE-B2 (4G17); anti-MAGEB2 antibody 4G17
B4: 1J15 (antibody, IgG1, V domains shown)
VH: B2 VH with V26F, T29N, V47I, G48A, G77V, A99S
VL: B3 VL with N28S, D30S, A34S, K63R, E70Q, R95S, S96D, S97N, S98N, K112R
notes: Rabbit monoclonal IgG1; Tested as supernatant and as small batch purified antibody; also called MAGE-B2 (IJ15); anti-MAGEB2 antibody 1J15

Target: T1, Human MAGEB2 (Melanoma-associated …)
Experiment: IHC on FFPE NCI-H1395 cells (endogenous MAGEB2)
Description: (§1) FFPE samples were sectioned at 4 μm and mounted on positive charged glass slides. After mounting, paraffin sections were air-dried at room temperature. FFPE TMA samples were received as freshly sectioned and mounted on glass slides. The fully automated IHC assay was performed on a Discovery Ultra Stainer (Ventana Medical Systems, Tucson, AZ) using Ventana Anti-Rabbit HQ (cat #760-4815), Ventana Anti-HQ HRP (cat #760-4820), and Ventana Antibody Diluent with Casein (cat #760-219) (Ventana Medical Systems, Tucson, AZ). The slides were baked on the Discovery Ultra Stainer at 60° C. for 8 minutes, de-paraffinized with Ventana Discovery wash (cat #950-510) for 3 cycles (8 minutes each) at 69° C., and underwent cell conditioning (target retrieval) at 95° C. for 16 minutes (for cell arrays) or 32 minutes (tissues or TMAs) in CC1 buffer (cat #950-500). Following this, slides were incubated with Background Sniper (cat #BS966M, Biocare Medical, Pacheco, CA) in a Ventana Option Prep kit (cat #771-751) for 28 minutes, incubated with CM inhibitor (a part of the Ventana DAB kit cat #760-159) for 12 minutes, and incubated for 1 h at RT with MAGE-B2 antibody diluted with Ventana diluent with Casein in a Ventana Prep kit (cat #770-001) (working concentration at 0.1 μg/ml for cell pellet, or 1-5 ug/ml for tissues) or with a matched concentration of isotype control Rabbit IgG1 antibody. Following this, slides were incubated with the Ventana Anti-Rabbit HQ (cat #760-4815) for 28 minutes at RT, Ventana Anti-HQ HRP (cat #760-4820) for 28 minutes at RT, and signals detected with Ventana DAB chromogen kit (cat #760-159) for 5 minutes at RT. Slides were counterstained with Ventana Hematoxylin II (cat #5266726001) for 8 minutes and Ventana Bluing reagent (cat #526676900) for 4 minutes. Slides were coverslipped and digitized using an Aperio AT2 scanner (Leica Biosystems Inc, Buffalo Grove, IL).

Binder | IHC % Frequency [%] | IHC Intensity
B1 | 0 | 0
B2 | 0 | 0
B3 | 0 | 0
B4 | 0 | 0

Target: T2, human MAGEA1
Experiment: IHC, FFPE CHO cells transfected with human MAGEA1
Description: as §1

Binder | binding result
B1 | no binding (tested: 0.1 µg/ml)
B2 | no binding (tested: 0.1 µg/ml)
B3 | no binding (tested: 0.1 µg/ml)
B4 | no binding (tested: 0.1 µg/ml)
